{
  "source": "paper PMC5507294",
  "about": "(PLoS ONE, 2017)",
  "key": {"[1]": {"biological_target": "T1, PR55α, the α isoform of the 55 kDa B-type regulatory subunit of PP2A (human (endogenous in HECs), UniProt P63151 1-447)", "T1 construct": "PR55α, α isoform of the 55 kDa B-type regulatory subunit of protein phosphatase 2A, endogenous in primary human ectocervical cells (HECs); also called PP2A regulatory subunit; source: endogenous, lysate of primary human ectocervical cells (HECs) in RIPA buffer", "T1 sequence (looked up)": "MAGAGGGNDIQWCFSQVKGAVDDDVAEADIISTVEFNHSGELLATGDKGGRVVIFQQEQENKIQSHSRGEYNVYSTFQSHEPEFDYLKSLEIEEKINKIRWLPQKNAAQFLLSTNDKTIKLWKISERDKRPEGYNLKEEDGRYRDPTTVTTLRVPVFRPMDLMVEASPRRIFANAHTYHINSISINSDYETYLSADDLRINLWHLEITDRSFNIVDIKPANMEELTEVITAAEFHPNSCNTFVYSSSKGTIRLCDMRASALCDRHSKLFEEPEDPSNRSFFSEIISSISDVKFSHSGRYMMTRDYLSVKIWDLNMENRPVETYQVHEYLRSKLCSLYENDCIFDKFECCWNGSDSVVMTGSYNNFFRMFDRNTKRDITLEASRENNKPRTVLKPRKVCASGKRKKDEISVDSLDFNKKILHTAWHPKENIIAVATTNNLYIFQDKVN", "assay": "co-IP; GSK-3β, PR55α or PP2Ac immunoprecipitated (antibody with protein A or protein G agarose, 90 min at 4°C) from RIPA lysates of HECs with equal amounts of protein; immunoblot for β-catenin; cells 3 d in KGM or in CR culture (F+Y+J2)", "conditions": "partners not purified"}, "[2]": {"biological_target": "T2, PP2A catalytic subunit (PP2Ac) (human (endogenous in HECs), UniProt P67775 1-309)", "T2 construct": "catalytic (C) subunit of protein phosphatase 2A, endogenous in primary human ectocervical cells (HECs); also called PP2A C subunit; source: endogenous, lysate of primary human ectocervical cells (HECs) in RIPA buffer", "T2 sequence (P67775 whole entry)": "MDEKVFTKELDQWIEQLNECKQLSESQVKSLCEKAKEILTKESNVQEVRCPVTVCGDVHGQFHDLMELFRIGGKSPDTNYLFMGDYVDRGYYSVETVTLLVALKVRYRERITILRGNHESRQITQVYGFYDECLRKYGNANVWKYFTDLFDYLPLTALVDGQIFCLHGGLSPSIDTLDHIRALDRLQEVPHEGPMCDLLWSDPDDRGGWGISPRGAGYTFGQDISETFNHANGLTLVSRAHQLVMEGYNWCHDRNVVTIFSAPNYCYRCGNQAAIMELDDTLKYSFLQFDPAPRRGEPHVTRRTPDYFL", "assay": "co-IP; GSK-3β, PR55α or PP2Ac immunoprecipitated (antibody with protein A or protein G agarose, 90 min at 4°C) from RIPA lysates of HECs with equal amounts of protein; immunoblot for β-catenin; cells 3 d in KGM or in CR culture (F+Y+J2)", "conditions": "partners not purified"}},
  "data": [
    {"binder": "β-catenin (natural protein, human (endogenous in HECs), UniProt P35222 1-781, looked up, β-catenin, endogenous in primary human ectocervical cells (HECs); Endogenous protein; its phosphorylation state in the co-precipitate was not determined; source: endogenous, lysate of primary human ectocervical cells (HECs) in RIPA buffer) MATQADLMELDMAMEPDRKAAVSHWQQQSYLDSGIHSGATTTAPSLSGKGNPEEEDVDTSQVLYEWEQGFSQSFTQEQVADIDGQYAMTRAQRVRAAMFPETLDEGMQIPSTQFDAAHPTNVQRLAEPSQMLKHAVVNLINYQDDAELATRAIPELTKLLNDEDQVVVNKAAVMVHQLSKKEASRHAIMRSPQMVSAIVRTMQNTNDVETARCTAGTLHNLSHHREGLLAIFKSGGIPALVKMLGSPVDSVLFYAITTLHNLLLHQEGAKMAVRLAGGLQKMVALLNKTNVKFLAITTDCLQILAYGNQESKLIILASGGPQALVNIMRTYTYEKLLWTTSRVLKVLSVCSSNKPAIVEAGGMQALGLHLTDPSQRLVQNCLWTLRNLSDAATKQEGMEGLLGTLVQLLGSDDINVVTCAAGILSNLTCNNYKNKMMVCQVGGIEALVRTVLRAGDREDITEPAICALRHLTSRHQEAEMAQNAVRLHYGLPVVVKLLHPPSHWPLIKATVGLIRNLALCPANHAPLREQGAIPRLVQLLVRAHQDTQRRTSMGGTQQQFVEGVRMEEIVEGCTGALHILARDVHNRIVIRGLNTIPLFVQLLYSPIENIQRVAAGVLCELAQDKEAAEAIEAEGATAPLTELLHSRNEGVATYAAAVLFRMSEDKPQDYKKRLSVELTSSLFRTEPMAWNETADLGLDIGAQGEPLGYRQDDPSYRSFHSGGYGQDALGMDPMMEHEMGGHHPGADYPVDGLPDLGHAQDLMDGLPPGDSNQLAWFDTDL", "values": [
      {"measurement": "fold more co-precipitated in CR cells than in KGM", "setting": "[1]", "value": 25, "unit": "fold"},
      {"measurement": "fold more co-precipitated in CR cells than in KGM", "setting": "[2]", "value": 3.8, "unit": "fold"}
    ]}
  ]
}
